# Test results reported in PMC8517857, “BusR senses bipartite DNA binding motifs by a unique molecular ruler architecture” (Nucleic Acids Research, 2021).
# Numbering of substitutions follows the chain as printed.
# T1: BusR wt (Streptococcus agalactiae DSM 16828, UniProt K0JNC6 1-213)
# T1 sequence: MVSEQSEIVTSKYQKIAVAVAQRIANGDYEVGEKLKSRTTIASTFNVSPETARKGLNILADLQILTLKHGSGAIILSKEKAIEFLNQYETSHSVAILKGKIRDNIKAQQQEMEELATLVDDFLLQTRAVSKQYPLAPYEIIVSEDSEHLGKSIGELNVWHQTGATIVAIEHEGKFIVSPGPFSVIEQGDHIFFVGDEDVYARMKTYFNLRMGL
# B1: pAB1 -10bp (dsDNA)
# DNA 1: ATAAAGTGACGTTAAAAGGGTAGTCACTTTTTTACT
# DNA 2: AGTAAAAAAGTGACTACCCTTTTAACGTCACTTTAT
# B2: pAB1 0BS (dsDNA)
# DNA 1: ATAAAGTATGGTTAAAGTATCGTAAAAGGGTACATACTTTTTTACT
# DNA 2: AGTAAAAAAGTATGTACCCTTTTACGATACTTTAACCATACTTTAT
# B3: pAB1 (SPR) (dsDNA)
# DNA 1: ATAAAGTGACGTTAAAGTATCGTAAAAGGGTAGTCACTTTTTTACT
# DNA 2: AGTAAAAAAGTGACTACCCTTTTACGATACTTTAACGTCACTTTAT
# B4: pAB1 1BS-B (dsDNA)
# DNA 1: B2 DNA 1 with A8G, T9A, G10C
# DNA 2: B2 DNA 2 with C37G, A38T, T39C
# B5: pAB1 1BS-A (dsDNA)
# DNA 1: B2 DNA 1 with C33G, A34T, T35C
# DNA 2: B2 DNA 2 with A12G, T13A, G14C
# B6: pAB1 +5bp (dsDNA)
# DNA 1: ATAAAGTGACGTTAAAGTATCGTCGATTAAAAGGGTAGTCACTTTTTTACT
# DNA 2: AGTAAAAAAGTGACTACCCTTTTAATCGACGATACTTTAACGTCACTTTAT
# B7: pAB1_EM (dsDNA)
# DNA 1: CGGTAAAGTGACGTTAAAGTATCGTAAAAGGGTAGTCACTTTTCGG
# DNA 2: CCGAAAAGTGACTACCCTTTTACGATACTTTAACGTCACTTTACCG
# Tests used:
# [1] = biological target: selenomethionine substituted full-length BusR from Streptococcus agalactiae (Streptococcus agalactiae); assay: crystal structure; selenomethionine full-length BusR, apo, 7 mg/ml, 150 mM magnesium-acetate, 6% D+trehalose, 20°C; SAD, 2.8 Å
# [2] = biological target: RCK_C domain of S. agalactiae BusR (Leu135 to end), no His6-tag (Streptococcus agalactiae); assay: crystal structure; RCK_C (no His6-tag), 4.5 mg/mL, co-crystallised with 1 mM c-di-AMP, 100 mM sodium-acetate pH 4.6, 3% PEG 4000, 20°C; 1.2 Å
# [3] = biological target: His6-RCK_C domain of S. agalactiae BusR (Leu135 to end) (Streptococcus agalactiae); assay: SAXS; isolated RCK_C domain in the absence of c-di-AMP; batch mode or SEC-SAXS, P12 beamline, PETRA III
# [4] = biological target: His6-RCK_C domain of S. agalactiae BusR (Leu135 to end) (Streptococcus agalactiae); assay: crystal structure; apo His6-RCK_C, 6 mg/mL, 0.1 M Bis-Tris pH 6.5, 18% PEG MME 5000, 20°C; 1 Å; dimer by a symmetry related copy
# [5] = biological target: BusR from Streptococcus agalactiae (full length) (Streptococcus agalactiae); assay: SAXS; full length BusR in 20 mM HEPES pH 7.5, 200 mM NaCl, 3% glycerol; P12 beamline, PETRA III
# [6] = biological target: BusR from Streptococcus agalactiae (full length) (Streptococcus agalactiae); assay: cryo-EM structure; BusR with c-di-AMP (100 μM) and operator DNA (pAB, 4.5 Å; pAB1, 7.1 Å), 20 mM HEPES pH 6.5, 100 mM NaCl
# [7] = biological target: BusR from Streptococcus agalactiae (full length) (Streptococcus agalactiae); assay: SEC-MALS; SEC-coupled right angle light scattering (SEC-RALS), Superdex S200 10/300 increase, 20°C, buffer SEC (30 mM NaPi pH 6.5, 200 mM NaCl, 3% glycerol); BusR alone (apo) and with c-di-AMP
# BusR = biological target: T2, BusR (Streptococcus agalactiae, UniProt K0JNC6); assay: ITC; […] Å co-crystal structure of the RCK_C domain; cryo-EM of the BusR:c-di-AMP:DNA complex; format: binding
# T2 construct: gene BM110_ORF1201; full-length BusR (ITC)
# BusR wt [8] = biological target: T1, BusR wt; assay: EMSA; 10 uM c-di-AMP, 100 nM BusR; EMSA: 100 mM KPi pH 6.5, 20 mM KCl, 30 min 20 C, 20 nM DNA, gel at 8 C; SPR: 100 mM NaPi pH 6.5, 20 mM KCl, 200 mM NaCl, 3 mM EDTA, 0.05% P20; BusR concentrations as tetramer; details: protein: recombinant; tags: His6-MBP removed with PreScission protease; chain copies: 4; label: 5'-6-FAM on strand 1; blunt
# BusR wt [9] = biological target: T1, BusR wt; assay: SPR; 10 uM c-di-AMP; EMSA: 100 mM KPi pH 6.5, 20 mM KCl, 30 min 20 C, 20 nM DNA, gel at 8 C; SPR: 100 mM NaPi pH 6.5, 20 mM KCl, 200 mM NaCl, 3 mM EDTA, 0.05% P20; BusR concentrations as tetramer; details: protein: recombinant; tags: His6-MBP removed with PreScission protease; chain copies: 4; blunt
# BusR W159A [10] = biological target: T3, BusR W159A (Streptococcus agalactiae DSM 16828, UniProt K0JNC6 1-213, W159A); assay: as above; details: protein: recombinant; tags: His6-MBP removed with PreScission protease; chain copies: 4; blunt
# BusR W159A [11] = biological target: T3, BusR W159A; assay: SPR; no c-di-AMP; EMSA: 100 mM KPi pH 6.5, 20 mM KCl, 30 min 20 C, 20 nM DNA, gel at 8 C; SPR: 100 mM NaPi pH 6.5, 20 mM KCl, 200 mM NaCl, 3 mM EDTA, 0.05% P20; BusR concentrations as tetramer; details: protein: recombinant; tags: His6-MBP removed with PreScission protease; chain copies: 4; blunt
# BusR wt [12] = biological target: T1, BusR wt; assay: cryo-EM; c-di-AMP; 7.1 A; EMSA: 100 mM KPi pH 6.5, 20 mM KCl, 30 min 20 C, 20 nM DNA, gel at 8 C; SPR: 100 mM NaPi pH 6.5, 20 mM KCl, 200 mM NaCl, 3 mM EDTA, 0.05% P20; BusR concentrations as tetramer; details: protein: recombinant; tags: His6-MBP removed with PreScission protease; chain copies: 4; blunt
molecule,measurement,setting,value
selenomethionine substituted full-length BusR from Streptococcus agalactiae (natural protein),stoichiometry N,[1],4
"RCK_C domain of S. agalactiae BusR (Leu135 to end), no His6-tag (domain or fragment)",stoichiometry N,[2],2
His6-RCK_C domain of S. agalactiae BusR (Leu135 to end) (domain or fragment),stoichiometry N,[3],2
same,stoichiometry N,[4],2
BusR from Streptococcus agalactiae (full length) (natural protein),stoichiometry N,[5],4
same,stoichiometry N,[6],4
same,stoichiometry N,[7],4
Nc1ncnc2c1ncn2[C@@H]1O[C@@H]2COP(=O)(O)O[C@H]3[C@@H](O)[C@H](n4cnc5c(N)ncnc54)O[C@@H]3COP(=O)(O)O[C@H]2[C@H]1O [c-di-AMP],Kd,BusR,112 ± 7 nM
B1,binding result,BusR wt [8],no binding
B2,binding result,BusR wt [8],no binding
B3,Kd,BusR wt [9],5.1 ± 0.4 nM
same,Kd,BusR W159A [10],34 ± 8 nM
same,Kd,BusR W159A [11],11 ± 2 nM
B4,binding result,BusR wt [8],no binding
B5,binding result,BusR wt [8],no binding
B6,binding result,BusR wt [8],no binding
B7,binding result,BusR wt [12],binds
